Here are results for five variants from article PMC10344873 (2023).

The chains are these.
B1: wild type p16-NLuc (mouse p16 tagged with NanoLuc luciferase) [mouse] / 3×Flag-tagged wild type CDK6 [mouse (by the printed Gene ID 12571; not stated in words for CDK6)] (parent complex)
chain 1: MESAADRLARAAAQGRVHDVRALLEAGVSPNAPNSFGRTPIQVMMMGNVHVAALLLNYGADSNCEDPTTFSRPVHDAAREGFLDTLVVLHGSGARLDVRDAWGRLPLDLAQERGHQDIVRYLRSAGCSLCSAGWSLCTAGNVAQTDGHSFSSSTPRALELRGQSQEQS
chain 2: MEKDSLSRADQQYECVAEIGEGAYGKVFKARDLKNGGRFVALKRVRVQTSEEGMPLSTIREVAVLRHLETFEHPNVVRLFDVCTVSRTDRETKLTLVFEHVDQDLTTYLDKVPEPGVPTETIKDMMFQLLRGLDFLHSHRVVHRDLKPQNILVTSSGQIKLADFGLARIYSFQMALTSVVVTLWYRAPEVLLQSSYATPVDLWSVGCIFAEMFRRKPLFRGSSDVDQLGKILDIIGLPGEEDWPRDVALPRQAFHSKSAQPIEKFVTDIDELGKDLLLKCLTFNPAKRISAYGALNHPYFQDLERYKDNLNSHLPSNQSTSELNTA

In the first experiment the parent is B1. The experiment is described as follows: LUMIER assay (Flag IP, on-bead NanoLuc bioluminescence); HEK293T cells, transient expression; n = 6 independent experiments; signals normalised on input; parent: 1; read off a plot.
Turning to chain 1 P73L, the ratio to parent was approximately 0.6. Still for that read-out and setting: for chain 1 G15S the value was approximately 0.18.

Turning to chain 1 G47D, the ratio to parent was approximately 0.08.

In a further experiment the parent is B1. The experiment is described as above. The source holds these as a separate data set.
Consider chain 2 D102N, for which the ratio to parent was approximately 0.5. On the same count and under the same terms, for chain 2 D110H the value was approximately 0.6.
